# B1: ABP1 L37L (protein, UniProt P15891 2-592, looked up)
# Actin-binding protein: ALEPIDYTTHSREIDAEYLKIVRGSDPDTTWLIISPNAKKEYEPESTGSSFHDFLQLFDETKVQYGLARVSPPGSDVEKIIIIGWCPDSAPLKTRASFAANFAAVANNLFKGYHVQVTARDEDDLDENELLMKISNAAGARYSIQTSSKQQGKASTPPVKKSFTPSKSPAPVSKKEPVKTPSPAPAAKISSRVNDNNDDDDWNEPELKERDFDQAPLKPNQSSYKPIGKIDLQKVIAEEKAKEDPRLVQKPTAAGSKIDPSSDIANLKNESKLKRDSEFNSFLGTTKPPSMTESSLKNDDDKVIKGFRNEKSPAQLWAERKAKQNSGNAETKAEAPKPEVPEDEPEGEPDVKDLKSKFEGLAASEKEEEEMENKFAPPPKKSEPTIISPKPFSKPQEPVKAEEAEQPKTDYKKIGNPLPGMHIEADNEEEPEENDDDWDDDEDEAAQPPLPSRNVASGAPVQKEEPEQEEIAPSLPSRNSIPAPKQEEAPEQAPEEEIEEEAEEAAPQLPSRSSAAPPPPPRRATPEKKPKENPWATAEYDYDAAEDNELTFVENDKIINIEFVDDDWWLGELEKDGSKGLFPSNYVSLGN
# modifications: synonymous codon change L37L in SH3
# B2: ABP1 K42K (protein, UniProt P15891 2-592, looked up)
# Actin-binding protein: B1 Actin-binding protein
# modifications: synonymous codon K42K
# B3: E13E (protein, UniProt P15891 2-592, looked up)
# Actin-binding protein: B1 Actin-binding protein
# modifications: synonymous codon change E13E in SH3
# B4: ABP1 S45S (protein, UniProt P15891 2-592, looked up)
# Actin-binding protein: B1 Actin-binding protein
# modifications: synonymous S45S codon change in SH3 domain
# B5: ABP1 G44G (protein, UniProt P15891 2-592, looked up)
# Actin-binding protein: B1 Actin-binding protein
# modifications: synonymous codon change G44G
# B6: Abp1SH3 in Abp1: Abp1 with its own SH3 reintroduced by editing (control) (protein)
# chain: MALEPIDYTTHSREIDAEYLKIVRGSDPDTTWLIISPNAKKEYEPESTGSSFHDFLQLFDETKVQYGLARVSPPGSDVEKIIIIGWCPDSAPLKTRASFAANFAAVANNLFKGYHVQVTARDEDDLDENELLMKISNAAGARYSIQTSSKQQGKASTPPVKKSFTPSKSPAPVSKKEPVKTPSPAPAAKISSRVNDNNDDDDWNEPELKERDFDQAPLKPNQSSYKPIGKIDLQKVIAEEKAKEDPRLVQKPTAAGSKIDPSSDIANLKNESKLKRDSEFNSFLGTTKPPSMTESSLKNDDDKVIKGFRNEKSPAQLWAERKAKQNSGNAETKAEAPKPEVPEDEPEGEPDVKDLKSKFEGLAASEKEEEEMENKFAPPPKKSEPTIISPKPFSKPQEPVKAEEAEQPKTDYKKIGNPLPGMHIEADNEEEPEENDDDWDDDEDEAAQPPLPSRNVASGAPVQKEEPEQEEIAPSLPSRNSIPAPKQEEAPEQAPEEEIEEEAEEAAPQLPSRSSAAPPPPPRRATPEKKPKENPWATAEYDYDAAEDNELTFVENDKIINIEFVDDDWWLGELEKDGSKGLFPSNYVSLGN
# modifications: left off: DHFR F[1,2], C-terminal, kept | FLAG, C-terminal, kept
# Key:
# Format in all cases: cell-based, Saccharomyces cerevisiae
# Hua2 and Lsb3 [1] = assay: Deep mutational scanning of Abp1 SH3, quadrant classification from Hua2 and Lsb3 DMS scores; conditions: class from hua2sc and lsb3sc
# Hua2 [2] = assay: Deep mutational scanning of Abp1 SH3, Abp1-Hua2 DHFR-PCA (DMS score); conditions: for hua2sc (DMS score): Abp1-Hua2, frequencies scaled to the synonymous mutation distribution (DMS score); for HUA2_MTX2: frequencies normalized to the reference condition, amino acid level; for HUA2_MTX2 = frequencies normalized to the reference condition: Hua2, MTX2, amino acid format; for hua2sc = Frequencies scaled to the synonymous mutation distribution (DMS score): Hua2
# Method in brief: (§1)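 Saturation mutagenesis (NNN per codon) of Abp1 SH3, reintegrated at the genomic locus in yeast and mated with Hua2- or Lsb3-DHFR F[3] prey strains. Diploids underwent two rounds of liquid DHFR-PCA selection (72 h each, 30 °C), in biological duplicate. Mutant abundance was tracked by Illumina sequencing against the pre-selection reference.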
# Lsb3 = assay: Deep mutational scanning of Abp1 SH3, Abp1-Lsb3 DHFR-PCA (DMS score); conditions: for lsb3sc (DMS score): Abp1-Lsb3, frequencies scaled to the synonymous mutation distribution (DMS score); for LSB3_MTX2: frequencies normalized to the reference condition, amino acid level; for LSB3_MTX2 = frequencies normalized to the reference condition: Lsb3, MTX2, amino acid format; for lsb3sc = Frequencies scaled to the synonymous mutation distribution (DMS score): Lsb3
# Method in brief: as §1
# Abp1 (1xFLAG) = assay: Western blot expression level of Abp1 SH3 mutants (Fig. S3C-D)
# Procedure: Precultures of yeast cells expressing baits fused with the DHFR F[1,2]-FLAG were grown overnight at 30 °C with agitation in synthetic complete medium. The next day, cells were expanded in synthetic complete medium to reach their exponential phase (OD600 of around 1.0), pelleted, and frozen at −80 °C. The equivalent of fifty OD600 of cells was resuspended in ice-cold yeast lysis buffer (10 mM Tris-HCl pH 7.4, 150 mM NaCl, 0.5 mM EDTA (Millipore Sigma), 1% Triton X-100 (Millipore Sigma), and one cOmplete Mini Protease Inhibitor Cocktail (Millipore Sigma) per 10 mL) with […] glass beads (Millipore Sigma) and disrupted at 4 °C by 10 cycles of 2 min vortexing and 2 min cooldown. The equivalent of […] of lysed cells was used for the immunoprecipitation of the bait proteins using FLAG-M2 agarose beads (Millipore Sigma). The beads were incubated with the cell lysates for 120 min at 4 °C with a slow rotation, followed by three washes with the yeast lysis buffer.
# Protein extracts and affinity-purified baits from yeast and human lysed cells were migrated on 10% polyacrylamide gels. The separated proteins were then transferred to nitrocellulose membranes. Validation of correct protein loading was done with ponceau staining of the membranes. Before the primary antibody incubations, membranes were blocked in 5% milk. Protein signals were detected on an Amersham Imager 600RGB (GE Healthcare) following the incubation of the membranes with the appropriate HRP-conjugated secondary antibodies and the Clarity Western ECL Substrate (Bio-Rad). The antibodies used in this study are M2-HRP (A8592, Sigma, 1/50,000), rabbit anti-FLAG (F7425, Sigma, 1/1000), PAK (SC-881, Santa Cruz, 1/200), p130cas/BCAR1 (SC-860, Santa Cruz, 1/200), actin (Cell Signaling Technology, 1/2000), anti-mouse HRP (Cell Signaling Technology, 1/10,000) and anti-rabbit HRP (Cell Signaling Technology, 1/10,000). The quantification of the WB signals was performed with the Amersham Imager 600 analysis software (GE Healthcare). […]
# C, WB comparing expression levels of selected Abp1 SH3 mutants with WT Abp1. An asterisk represents a stop codon, which inhibits translation of the 1xFLAG epitope. D, Quantification of the relative level of expression of Abp1 SH3 mutants by WB as in C, (log2 of Abp1 SH3 mutant/Abp1 WT ratio, WB relative level of expression of 0 for WT Abp1) compared to their DMS scores (Hua2 (left): Pearson’s r = -0.34, p-value = 0.46, Lsb3 […]
# (right): Pearson’s r = -0.81, p-value = 0.03). […]
# Most […]
# interface residues sensitive to mutations, such as Y7, E13, E16, V3 1, D32, D34, L48 and Y53, specifically affect Hua2 PPI. See also Supplementary Table 4.
# Hua2 [3] = assay: Low-throughput liquid DHFR-PCA of selected Abp1 SH3 mutants (Fig. S3F); conditions: average
# Procedure: Liquid DHFR-PCA low-throughput experiments were performed to validate the PPIs identified as affected by the SH3 domain deletions in the high-throughput solid DHFR-PCA screen (256 PPIs weaker or lost and 116 PPIs stronger or gained following domain deletions). Mating and the diploid selection were performed as described for the large-scale experiment, with the exception that the plates were in 384 formats. Following the second diploid selection, diploid cells were inoculated in a 96 v-shaped well plate using a robotically manipulated 96 pin tool in a synthetic complete medium with MSG at pH 6.0 with NAT and HPH. After 48 h of growth, optical density (OD) was read using a TECAN Infinite F200 Pro, and dilutions to 1 OD in sterile nanopure water were prepared. Cells were then diluted to 0.1 OD by combining 25 µl of cell suspension at OD = 1 and 225 µl of PCA selection media without agar in a 96-wells plate. Plates were incubated at 30 °C in a TECAN Infinite M Nano and OD was monitored each 15 min for 72 h. […]
# Selected non-conserved positions (E6 , E13, N15 and N27) sensitivities to mutations for the Abp1-Hua2 PPI were tested in a low -throughput liquid DHFR -PCA assay. The growth of the mutants in the low -throughput experiment (average of four replicates of the total OD for each growth curve, y axis ) is compared to the mutants DMS score (x axis). […]
# Hua2 and Lsb3 [4] = assay: Deep mutational scanning of Abp1 SH3, quadrant by Hua2 and Lsb3 DMS scores
# Abp1 PPIs = assay: DHFR-PCA of Abp1 SH3-swapped baits (Fig. 2B-D, S2C, S2F); conditions: DHFR-PCA, quadruplicate
# Method in brief: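 Yeast DHFR-PCA in which Abp1 baits, carrying their SH3 replaced by CRISPR–Cas9 with one of 27 yeast SH3s or human CTTN, HCLS1 or DBNL SH3s, were mated against 575 SH3-associated DHFR F[3] preys plus 40 negative controls. Four tests were run per PPI. Diploids were selected twice (48 h, 30 °C), then grown 4 days on PCA selection media.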
# [5] = tested on: growth of ABP1 SH3-swapped strains in hygromycin B; assay: Hygromycin B resistance assay in liquid culture (Fig. S2E); conditions: 37 °C, 24 h, n = 3
# Procedure: For the hygromycin B resistance assays in liquid cultures, the ABP1 SH3 swapped strains including the ABP1 SH3-deleted and ABP1 KO strain were grown overnight at 30 °C as precultures in synthetic complete medium with MSG. The next day, OD was measured with a TECAN Infinite F200 Pro plate reader, and the cultures were diluted to OD of 1.0 in sterile nanopure water. The different strains were further diluted at 0.1 OD by adding 25 µl of cultures to 225 µl of synthetic complete medium with MSG or with MSG and Hygromycin B 120 µg/mL in 96 wells plate (final concentration of 108 µg/mL). Cells were incubated in a TECAN Infinite M Nano plate reader at 37 °C for 24 h and OD was measured every 15 min.
Molecule,quadrant (Hua2 and Lsb3 [1]),hua2sc (DMS score) (Hua2 [2]),HUA2_MTX2 (Hua2 [2]; Abp1-Hua2 DHFR-PCA),lsb3sc (DMS score) (Lsb3),LSB3_MTX2 (Lsb3; Abp1-Lsb3 DHFR-PCA),HUA2_MTX2 = frequencies normalized to the reference condition (Hua2 [2]),hua2sc = Frequencies scaled to the synonymous mutation distribution (DMS score) (Hua2 [2]),LSB3_MTX2 = frequencies normalized to the reference condition (Lsb3),lsb3sc = Frequencies scaled to the synonymous mutation distribution (DMS score) (Lsb3),quadrant (Hua2 and Lsb3 [4]),other results
B1,Neutral,-0.0161,1.597,0.2222,1.722,–,–,–,–,–,–
B2,Neutral,-0.1876,1.425,0.08611,1.586,–,–,–,–,–,–
B3,–,–,–,–,–,–,–,–,–,–,"DMS score Hua2 (Hua2 [2]; Abp1-Hua2 DHFR-PCA, WT = 0, Fig. S3C-D): -0.2784; DMS Score (Hua2 [2]; condition HUA2_MTX2, amino acid mutation format, Fig. S3F): 1.334; Ratio Mutant/WT Flag (Abp1 (1xFLAG); Western blot Flag signal of mutant relative to WT): 0.6362; Flag (2 bands) (Abp1 (1xFLAG); Western blot, Flag signal, 2 bands): 23257; DMS score Lsb3 (Lsb3; Abp1-Lsb3 DHFR-PCA, WT = 0, Fig. S3C-D): -0.3311; ave_au (DMS validation) (Hua2 [3]): 78.0323 au"
B4,–,–,–,–,–,1.852,0.2394,1.916,0.4157,Neutral,–
B5,–,–,–,–,–,1.505,-0.1077,1.253,-0.247,Neutral,–
B6,–,–,–,–,–,–,–,–,–,–,Kendall's τ of PPI profile with WT Abp1 (Abp1 PPIs): 0.93; Hygromycin phenotype [5]: fully reproduces WT sensitivity
